Experimental data from the DeepSol protein solubility set.

Test: soluble on expression in E. coli; label from the status in PepcDB or PDB records

| Sequence | soluble on expression in E. coli |
| --- | --- |
| KQGQTALGVEFGSTRIKSVLIDANNFEVLASGSFEWDNQLVNGIWTYSLDDVWKGLQASYTDLKAEVKDKYDFKLSKIGQIGISAMMHGYLVFDQADKQLAEFRTWRNAITEQAAGELSKLFNFNIPQRWCIAHLYQAILNQEKSVSQIDFMTTLAGYVHWRLTGKKVTGIGDASGIFPIDSNSKDYDQKKLDQFSDLDGVEKQPWDIKRILPKVLLAGQNAGQLTKEGSLLIDPSGDLQDGSVFCPPEGDA | not soluble |
| MKVMECQTYEELSQIAARITADTIKEKPDAVLGLATGGTPEGTYRQLIRLHQTENLSFQNITTVNLDEYAGLSSDDPNSYHFYMNDRFFQHIDSKPSRHFIPNGNADDLEAECRRYEQLVDSLGDTDIQLLGIGRNGHIGFNEPGTSFKSRTHVVTLNEQTRQANARYFPSIDSVPKKALTMGIQTILSSKRILLLISGKSKAEAVRKLLEGNISEDFPASALHLHSDVTVLIDREAASLRP | soluble |
| MNRVEPPYDVKEALVFTQKMAQLSKALWKSIEKDWQQWLKPYDLNINEHHILWIAYQLNGASISEIAKFGVMHVSTAFNFSKKLEERGYLRFSKRLNDKRNTYVQLTEEGTEVFWSLLEEFDPTRNAVFKGSQPLYHLFGKFPEVAEMMCMIRHIYGDDFMEIFETSLTNIDNDFESVNGKLKKKAKDSAADEPAEELEPVNS | soluble |
| MGSDKIHHHHHHMIEHFNPWWKGREGIEEDEDYRKWIGSEVRWVPEVIKKISLEPFSLNIIFGPRQVGKTTLLKLIVKKLLDEGKNPRSIFYLRCDYISDYKELMNVIDEYLEIKETEGIKSSYILLDEVTFPKEWFRAIKLYIDMGKFRNDVLILTGSTSMYTKGEVETFPGRRGKGKDAVMLPLTFREFIKIASPKLHSVLPRINSLNKVEECLKAIPFIEELNSLFKLYLISGGFPRAVKDLLKHNKVSEETYETYISWMRGDILKLGKSEEVARRIMKTIIKKLPSPVSWHGIAKEIDIGSHKTVFSYIELFERMFLIRVLPYIDPDKLEADFKREKKVHLIDPFLYHLVSRWTLTEEPSEDKIVESVVATHVARRYEVGYWRDGREIDVVTREGVGIEVKWSDNVKVSPVKVGKIRKVITLSKSKFSRDPLVIPVSVFLSCI | not soluble |
| METCFANLDEQTKEKAKSILEQKKSGKLTHEQAKEELTKLGVKLPEKEKHEDIFAGLDEATKTKAKAILDNEKKQLEALNVDLPHHKFFMKKEDK | not soluble |
| MSRNDLFKQPLDTINVGIDFIHEDMKKQGIPSHQVNWAPPANGDPELLKLLDQLKNPTLYEKIQQANEEAVTRIIQSKPILVGFDKAINVMPDMTETTILHAGPPITYENMCGPMKGAVQGALVFEGLAKDLADADRVARSGAITFSPCHEHDAVGSMAGVTSPNMYVHIIKNETYGNTAFTNLSEQLAKVLRFGANDQSVVDRLIWMRDVLGPLLHDAMTFCPEGIDLRLMLSQALHMGDECHNRNVAGSTLLVQALTPYMVQTDFSREQLKEVFEFLGSSDYFSGPTWMGAAKCALDAGHNVENSTIVTTMCRNGVEFGIRVSGIGGNHWFTGPAQRVIGPMFAGYTQEDAGLDMGDSAITETYGVGGFAMAAAPAIVPLVGGTVAEALNYSKEMLEITTKENPNVTIPVLDFMGIPTGIDVLKVLETGMLPVINTAIAHKEPGIGMIGAGLTNPPANVFNEALKALVATIN | soluble |
| MTGDYALCGWRVRIDRPSTFAPPWIGEDRPVDITIRHAAFSPPSPPLLFESPLVGVFAEGAIVLRINPGLGFLIEGGARITVDATAQTGEAEIATFLFGQCLGFLALQRRQPALRAASVVRDGRAVVLAGAAGVGKSTLAAALMAKGWGLLADEVTLIDPRTLLIPPAFGRIKLWKDSATHLGLEAAALPAVRPGWNKGHAPYGGHLAPAPVPLAAIILIEQAYTAKTAGIDKIAPREALAALNDQLHGGTFAGALAARPACFDLLTTLVGGVPVFQLSRPWHGMTLAPLVELLTAEMARLEHHHHHH | not soluble |
| MDVRELAIQQLKTVLDPELGINVVDLGLIYDLKIEDGHINVLMTLTTPGCPLHDSIAGGVKRALEQIDGVRDVRVQVTWNPPWTPERMSEEALRQLGHFS | not soluble |
| PIKMGWLKKQRSIVKNWQQRYFVLRAQQLYYYKDEEDTKPQGCMYLPGCTIKEIATNPEEAGKFVFEIIPASWDQNRMGQDSYVLMASSQAEMEEWVKFLRRVAG | soluble |
| MSQSKADYINVIGAGLAGSEAAYQIAKRGIPVKLYEMRGVKATPQHKTTNFAELVCSNSFRGDSLTNAVGLLKEEMRRLDSIIMRNGEAHRVPAGGAMAVDREGYAEAVTAEIESHPLIEVIRKEITEIPDDAITVIASGPLTSDALAEKIHELNGGDGFYFYDAAAPIVDKATIDMNKVYLKSRYDKGEAAYLNCPMTKEEFMAFYEALTTAEEAPLNSFEKEKYFEGCMPIEVMAKRGIKTMLYGPMKPVGLEYPEDYMGPRDGDFKTPYAVVQLRQDNAAGSLYNIVGFQTHLKWGEQKRVFQMIPGLENAEFVRYGVMHRNSYMDSPNLLKQTFQSKSNPNLFFAGQMTGVEGYVESAASGLVAGINAARLFKGEDEVIFPHTTAIGSLPYYVTHAESKHFQPMNVNFGIIKELEGPRIRDKKERYEKIAERSLKDLQTFIDALEHHHHHH | soluble |
| MPKIISKRKFNILRKTKEEIFSQIVYTKKRNGLHKAAKEYYFKDKDFTIIEDQQDRPDKPEELDTPDIPKPPKPPKGPDQPEEPGQPGGPDDPNSGNKKMPKPDEFVTHRQLQEFKKDLLVELHEIFPTKPELKRVEEKVDVLFELQKAQGEQIRIQGEQIKELKVEQKAQGETLQLILQTLQKMNDRLDKIEGKMDKMESRMDKMETRLDKLESK | soluble |
| MEAYLKKLCFEYQVEEKEVKELLARMERVYLDKGETIASATMPEQSLYIIVSGILHTFTTQQGEDKTVRFLSEGDAILCYNTSKHSVKTLTRCVAYYISEDEIEELCATSITFSNLIRQMMEYQFYLKEEMSVNARKLTIRERYLSLLSEIPDILYRVPLKYITYYLGADVTSLGYLAGSCK | not soluble |
| MSQVTEQSVRFQTALASIKLIQASAVLDLTEDDFDFLTSNKVWIATDRSRARRCVEACVYGTLDFVGYPRFPAPVEFIAAVIAYYVHPVNIQTACLIMEGAEFTENIINGVERPVKAAELFAFTLRVRAGNTDVLTDAEENVRQKLRAEGVM | soluble |
| MKKTLALAATAAVLMLSACSSGFGGEKEEEITQKTAKSSEKAIVPKYNISDSYYKMVLPFKAGKARGLTTEQLNTRLDIDEFETGLMRLAQDSFSTDDYLFQEGQYLDEDTVLSWLARKKTGSDLKKAEKEDKNFKNEGLNPALPSSGSTEEKNESSPIYLASMLEHDYLVRKDKNSIQLGGVMIGLALNSVYYYREKTGDPQKEVEIKDSTLRQQGEKIAQEVINRLRKKDNLKNVPITVALYKQASKTSIVPGNFIAKTEVKAGSTDISNWDDINEKYVFYPADTTTAEKYPDDTEVFKRFKNSIEEYFPNYTGVVGTALYENDEMKKMKIDIPMQFYGKSEVVAFTQFLTGEVMDYYSKSSVDVEVNITSSDGQEAVIIRNAGDKEPTVHIYD | not soluble |
| MGSQSETVCVTGASGFIGSWLVMRLLERGYTVRATVRDPTNVKKVKHLLDLPKAETHLTLWKADLADEGSFDEAIKGCTGVFHVATPMDFESKDPENEVIKPTIEGMLGIMKSCAAAKTVRRLVFTSSAGTVNIQEHQLPVYDESCWSDMEFCRAKKMTAWMYFVSKTLAEQAAWKYAKENNIDFITIIPTLVVGPFIMSSMPPSLITALSPITGNEAHYSIIRQGQFVHLDDLCNAHIYLFENPKAEGRYICSSHDCIILDLAKMLREKYPEYNIPTEFKGVDENLKSVCFSSKKLTDLGFEFKYSLEDMFTGAVDTCRAKGLLPPSHEKPVDGKT | soluble |
| SGRPIEDVRDRQRLADATATVHETRLALHHGRGNIESDFRLSNGRSSTCSYLSYSFLSYWPGKHDINLMAGCALAVSAGNCDQNAAINTRRHAARMEGGGQITNVCDQACAHMYALYQPPGSAEAQDSAVVLDSWSDGPAVLLRDSRWAGTYHRTSTYPIERFDKPGAIDALARTRALQAEIEDPQTEFHAHLRGVESVVRTPPVPRKIYASTP | not soluble |
| MSLKPFSEPIIRCAKARAYRIPTDRPEADGTFAWTDTTIVVATLDAGDAHGIGYTYTDASAAALIERMLAPALDGRSAFDIGGALAALRRAVRNVGRGGVAATAISALDAALWDAKAKLLGLPLAKLLGGVRDAVPVYGSGGFTSYDEHALRAQLEGWRAQGLHACKIKVGSAPRDDPARVRIARDALGGGVALFVDANGAFAPHDALAFAQRIAECDVRWFEEPVSADDIDGLRFVRERLAAGVDVAAGEYGYTLDDFRVLLASGALDVLQADATRCGGVSGFLEAATLADAFHRDLSAHCAPALHRHVCCAAPRVRHVEWFHDHARIERMLFDGAPTPRDGAIAPDMSRPGLGIELKAQDAARFAVEGHHHHHH | not soluble |
| MSLSDTEKKIADTKGQFLQAVSQGQRLTDAEWRNCRIVLTTERVALLGDDKRQISLTDIDRIADRFDVNQQSAGVSDYVALYVGEDVILVSASDHGTFETDFYRASLDGAIVLVQHPALKGGVVQSAEWTKGRLKVTDEALKLAMADGQAVVIDRADIGDLAVEEKQVSGEERTVIQVEHSEEDISVETHLAGEEFHATVLRTMLEESAEQNQADLDLSSTEKRVIMALHSGVSPFDIPNFVGIDVEKTEEIFDRLIELDVISVLRERTEVNLTTKGRRVAGERMGEQEGHHHHHH | not soluble |
| KIKRMECFDISHTMGNQTVASCVVFNKEGPLKSDYRRFNIEGITGGDDYAAMEQVLQKRYERDLEEDKIPDIIFIDGGKGQLNRALNVFQHLQVKWDKNRPHLIGVAKGVDRRAGQEVLIISKQDREIHLPDDSLALHLIQHIRDESHNHAISGHRKKRQKAF | not soluble |
| MVKIHPDLTTSGAGEETSSPYLTTEQESFTIWMKSLVFNTNGCTVFDSKGNIIYRVDNYNSKSCREVYLMDLSGHVLFTLRRQKFGLFKTWEGYRSSSATVESTTKLEYFRVKNNVFQVPNKDSSSSYRVNAGSCRNDEQYCYKMVTRGSSLAIEDNCGKLLAEVKRKQSINGLKLGDDVLTMMVESQVDHSFIIGLVLAHSLINCIL | soluble |
| MIFRAKANKALDRAEDPRETLDYSYQKQLELLQKVRRGVADVATSRKRLELQLNQLQSQSGKLEDQGRKALALGREDLAREALSRRAALQQQVTDLETQHATLQGEEEKLTLAAQRLQAKVDAFRTKKETIKATYTAAQAQTRIGEAFSGISEEMGDVGLAIQRAEDKTAQLQARAGAIDELLASGALDDQSGMHKDDIQAELDRLSGGTDVELELQRMKAELAGGSTSDRQAIEGGQGQGEASSQSQQPQDTPRFDKQLEHHHHHH | not soluble |
| MQELKVPSVGESIVEVEIGAWLKGEGESFAQDEPLVELITDKATLELPAPFAGTLKQILKRTGETARVGEAIALLEEGRAEAAPKAQAPAEAPKEPSPEPLAMPAAERLMQEKGVSPAEVQGTGLGGRILKEDVMRHLEERAPAKPQEAPPPPPPSRPAPPPSTPPQPPADKPWRVSEAVPMTPLRRRIAERLLMVRQTTAMLTTFNEADMSAVIALRKEFGEAFQKKYGVKLGFMSFFVKAVVQALKEIPELNAEIRDNHIVYHRYYDIGIAVGGGEGLVVPVIRDADRLSFAEIEQKIADFAERARTKKLKPEELMGGTFTITNGGIYGSLNSTPLLNPPQVGILGMHAIQERPVVRDGQVVIRPMMYLALSYDHRIVDGREAVTFLRRVKELIENPARLLLEV | soluble |
| MPKVYNSIVVDAPVERVWSRIRNFHDFSWAPSLIKSCKKVGGGGGYSVGARRLLNGEFLDTLIAYSEIERRIMYSMDEGPSPVSSGEIYNYVGNLHLLPVTIDDTTFVEWSGSWESASTEAVEYMNTVYRSLLADLAAEFTSESRRSEWIDQLEHHHHHH | soluble |
